Consider two substances from article doi:10.1101/226712.

This test addresses ClpXP (ClpX6P14) with Cy3-labeled ClpPQ48C, immobilized through biotinylated ClpX6 (Escherichia coli) (UniProt P0A6H1). Briefly: single-molecule TIRF fluorescence with alternating laser excitation.

Substance “Titin-I27 V13P with the C-terminal ssrA tag, Cy5-labeled at Cys (domain or fragment)” yielded a total dwell time (Δτ, bound and processed) of 7.3 s.

Substance “Titin-I27 wild-type with the C-terminal ssrA tag, Cy5-labeled at Cys (domain or fragment)” yielded a total dwell time (Δτ, bound and processed) of 7.5 s.
